Earlier results on 1 substance are cited in article PMC10256198 (European Heart Journal, 2023).

For the series the following is noted: stated in the introduction, no reference given.

For “Ghrelin: endogenous 28 amino acid anabolic peptide hormone, activated by acylation of amino-acid 3 (GSSFLSPEHQRVQQRKESKKPPAKLQPR; Ghrelin-28; UniProt Q9UBU3 24-51, looked up)”, the plasma half time is 24 to 30 min.
